Assay results from the Human Domainome abundance scans (Beltran et al. 2025).
± gives the uncertainty stated by the source.

Assay: abundance fitness (aPCA) (normalised: wild type 0, dead -1); higher = more abundant; growth selection in yeast, the domain comes from the species named
Conditions: Homo sapiens

| Substance | abundance fitness |
| --- | --- |
| BAG family molecular chaperone regulator 3 T34G, O95817 | 0.064 ± 0.087 |
| BAG family molecular chaperone regulator 3 T34H, O95817 | -0.495 ± 0.48 |
| BAG family molecular chaperone regulator 3 T34I, O95817 | 0.028 ± 0.2 |
| BAG family molecular chaperone regulator 3 T34K, O95817 | 0.244 ± 0.23 |
| BAG family molecular chaperone regulator 3 T34L, O95817 | -0.568 ± 0.084 |
| BAG family molecular chaperone regulator 3 T34M, O95817 | 0.01 ± 0.23 |
| BAG family molecular chaperone regulator 3 T34N, O95817 | 0.336 ± 0.26 |
| BAG family molecular chaperone regulator 3 T34P, O95817 | -0.688 ± 0.14 |
| BAG family molecular chaperone regulator 3 T34Q, O95817 | -0.148 ± 0.1 |
| BAG family molecular chaperone regulator 3 T34R, O95817 | -0.391 ± 0.12 |
| BAG family molecular chaperone regulator 3 T34S, O95817 | 0.579 ± 0.089 |
| BAG family molecular chaperone regulator 3 T34V, O95817 | 0.011 ± 0.17 |
| BAG family molecular chaperone regulator 3 T34W, O95817 | -0.179 ± 0.083 |
| BAG family molecular chaperone regulator 3 T46A, O95817 | -0.687 ± 0.32 |
| BAG family molecular chaperone regulator 3 T46C, O95817 | -0.312 ± 0.086 |
| BAG family molecular chaperone regulator 3 T46G, O95817 | -0.65 ± 0.075 |
| BAG family molecular chaperone regulator 3 T46H, O95817 | -0.571 ± 0.4 |
| BAG family molecular chaperone regulator 3 T46I, O95817 | -0.285 ± 0.21 |
| BAG family molecular chaperone regulator 3 T46K, O95817 | -0.435 ± 0.33 |
| BAG family molecular chaperone regulator 3 T46L, O95817 | -0.53 ± 0.12 |
| BAG family molecular chaperone regulator 3 T46P, O95817 | -0.752 ± 0.32 |
| BAG family molecular chaperone regulator 3 T46Q, O95817 | -0.444 ± 0.14 |
| BAG family molecular chaperone regulator 3 T46R, O95817 | -0.225 ± 0.11 |

| Substance | abundance fitness |
| --- | --- |
| BAG family molecular chaperone regulator 3 T46S, O95817 | -0.183 ± 0.12 |
| BAG family molecular chaperone regulator 3 T46V, O95817 | -0.531 ± 0.14 |
| BAG family molecular chaperone regulator 3 T46Y, O95817 | -0.358 ± 0.33 |
| BAG family molecular chaperone regulator 3 T47A, O95817 | -0.613 ± 0.17 |
| BAG family molecular chaperone regulator 3 T47C, O95817 | -0.227 ± 0.27 |
| BAG family molecular chaperone regulator 3 T47D, O95817 | -0.679 ± 0.42 |
| BAG family molecular chaperone regulator 3 T47E, O95817 | -0.573 ± 0.15 |
| BAG family molecular chaperone regulator 3 T47G, O95817 | -0.796 ± 0.14 |
| BAG family molecular chaperone regulator 3 T47H, O95817 | -0.736 ± 0.3 |
| BAG family molecular chaperone regulator 3 T47I, O95817 | -0.468 ± 0.23 |
| BAG family molecular chaperone regulator 3 T47L, O95817 | -0.613 ± 0.28 |
| BAG family molecular chaperone regulator 3 T47M, O95817 | -0.564 ± 0.24 |
| BAG family molecular chaperone regulator 3 T47N, O95817 | -0.53 ± 0.2 |
| BAG family molecular chaperone regulator 3 T47Q, O95817 | -0.741 ± 0.14 |
| BAG family molecular chaperone regulator 3 T47R, O95817 | -0.728 ± 0.13 |
| BAG family molecular chaperone regulator 3 T47V, O95817 | -0.302 ± 0.073 |
| BAG family molecular chaperone regulator 3 T48I, O95817 | -0.354 ± 0.14 |
| BAG family molecular chaperone regulator 3 V12A, O95817 | -0.03 ± 0.12 |
| BAG family molecular chaperone regulator 3 V12D, O95817 | 0.092 ± 0.16 |
| BAG family molecular chaperone regulator 3 V12E, O95817 | -0.594 ± 0.26 |
| BAG family molecular chaperone regulator 3 V12F, O95817 | 0.051 ± 0.19 |
| BAG family molecular chaperone regulator 3 V12G, O95817 | -0.443 ± 0.069 |
| BAG family molecular chaperone regulator 3 V12H, O95817 | -0.48 ± 0.33 |

| Substance | abundance fitness |
| --- | --- |
| BAG family molecular chaperone regulator 3 V12I, O95817 | 0.446 ± 0.11 |
| BAG family molecular chaperone regulator 3 V12L, O95817 | 0.208 ± 0.066 |
| BAG family molecular chaperone regulator 3 V12M, O95817 | -0.393 ± 0.4 |
| BAG family molecular chaperone regulator 3 V12N, O95817 | 0.139 ± 0.15 |
| BAG family molecular chaperone regulator 3 V12Q, O95817 | 0.065 ± 0.16 |
| BAG family molecular chaperone regulator 3 V12R, O95817 | -0.594 ± 0.21 |
| BAG family molecular chaperone regulator 3 V12S, O95817 | -0.14 ± 0.15 |
| BAG family molecular chaperone regulator 3 V12T, O95817 | -0.52 ± 0.43 |
| BAG family molecular chaperone regulator 3 V12W, O95817 | -0.571 ± 0.32 |
| BAG family molecular chaperone regulator 3 V12Y, O95817 | 0.199 ± 0.12 |
| BAG family molecular chaperone regulator 3 V40A, O95817 | -0.556 ± 0.17 |
| BAG family molecular chaperone regulator 3 V40C, O95817 | -0.269 ± 0.13 |
| BAG family molecular chaperone regulator 3 V40D, O95817 | -0.808 ± 0.42 |
| BAG family molecular chaperone regulator 3 V40E, O95817 | -0.661 ± 0.18 |
| BAG family molecular chaperone regulator 3 V40F, O95817 | -0.533 ± 0.4 |
| BAG family molecular chaperone regulator 3 V40G, O95817 | -0.541 ± 0.087 |
| BAG family molecular chaperone regulator 3 V40H, O95817 | -0.082 ± 0.17 |
| BAG family molecular chaperone regulator 3 V40I, O95817 | -0.084 ± 0.069 |
| BAG family molecular chaperone regulator 3 V40K, O95817 | -0.64 ± 0.098 |
| BAG family molecular chaperone regulator 3 V40L, O95817 | -0.664 ± 0.084 |
| BAG family molecular chaperone regulator 3 V40M, O95817 | 0.03 ± 0.16 |
| BAG family molecular chaperone regulator 3 V40N, O95817 | 0.081 ± 0.23 |
| BAG family molecular chaperone regulator 3 V40Q, O95817 | -0.642 ± 0.13 |

| Substance | abundance fitness |
| --- | --- |
| BAG family molecular chaperone regulator 3 V40R, O95817 | -0.637 ± 0.13 |
| BAG family molecular chaperone regulator 3 V40S, O95817 | -0.745 ± 0.21 |
| BAG family molecular chaperone regulator 3 V40T, O95817 | -0.959 ± 0.24 |
| BAG family molecular chaperone regulator 3 V40W, O95817 | -0.468 ± 0.21 |
| BAG family molecular chaperone regulator 3 V54A, O95817 | -0.719 ± 0.26 |
| BAG family molecular chaperone regulator 3 V54C, O95817 | -0.022 ± 0.12 |
| BAG family molecular chaperone regulator 3 V54D, O95817 | -0.08 ± 0.23 |
| BAG family molecular chaperone regulator 3 V54E, O95817 | -0.591 ± 0.28 |
| BAG family molecular chaperone regulator 3 V54F, O95817 | -0.375 ± 0.31 |
| BAG family molecular chaperone regulator 3 V54G, O95817 | -0.07 ± 0.077 |
| BAG family molecular chaperone regulator 3 V54I, O95817 | -0.335 ± 0.13 |
| BAG family molecular chaperone regulator 3 V54K, O95817 | -0.008 ± 0.14 |
| BAG family molecular chaperone regulator 3 V54L, O95817 | 0.369 ± 0.097 |
| BAG family molecular chaperone regulator 3 V54M, O95817 | 0.19 ± 0.22 |
| BAG family molecular chaperone regulator 3 V54P, O95817 | -0.832 ± 0.42 |
| BAG family molecular chaperone regulator 3 V54Q, O95817 | -0.084 ± 0.23 |
| BAG family molecular chaperone regulator 3 V54R, O95817 | -0.083 ± 0.081 |
| BAG family molecular chaperone regulator 3 V54S, O95817 | -0.13 ± 0.13 |
| BAG family molecular chaperone regulator 3 V54W, O95817 | -0.961 ± 0.37 |
| BAG family molecular chaperone regulator 3 V54Y, O95817 | -0.376 ± 0.25 |
| BAG family molecular chaperone regulator 3 W26A, O95817 | -0.534 ± 0.092 |
| BAG family molecular chaperone regulator 3 W26D, O95817 | -0.621 ± 0.37 |
